From patent US20170052184A1 (published 2017)

T1: HCV Core1-169 (HCV-1, UniProt P26664 1-169)
T1 construct: also called recombinant HCV core antigen
T1 sequence: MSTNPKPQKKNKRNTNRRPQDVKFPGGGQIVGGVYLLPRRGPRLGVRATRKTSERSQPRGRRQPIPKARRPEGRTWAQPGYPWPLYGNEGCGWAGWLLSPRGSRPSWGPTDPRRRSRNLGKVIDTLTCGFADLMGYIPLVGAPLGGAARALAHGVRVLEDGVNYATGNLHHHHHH

T2: HCV Core1-169 (hepatitis C virus (HCV-1), UniProt P26664 1-169)
T2 sequence: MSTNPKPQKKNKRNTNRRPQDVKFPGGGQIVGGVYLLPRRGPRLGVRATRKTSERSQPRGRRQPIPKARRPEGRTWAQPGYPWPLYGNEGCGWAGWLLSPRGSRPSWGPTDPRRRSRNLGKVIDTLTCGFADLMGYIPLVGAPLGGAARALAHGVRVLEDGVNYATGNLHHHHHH

B1: HCV 208A-557 (antibody, V domains shown)
VH: QGQMQQSGAELVKPGASVKLSCKTSGFTFSSSYISWLKQKPGQSLEWIAWIYAGTGNTNYNQKFTDKAQLTVDTSSSTAYMQLSSLTTEDSAIYYCAISGTGFTYWGQGTLVTVSA
VL: DIALTQSPASLAVSLGQRATISCRASQSVSTSRYSYMHWYQQKPGQPPELLIKYASNLESGVPARFSGSGSGTDFTLNIHPVGEEDTATYYCQHSWDFPFTFGSGTKLEIKR
B2: HCV 208A-134 (antibody, V domains shown)
VH: QGQMQQSGAELAKPGASVKLSCKTSGFTFSSSYISWLKQKPGQSLEWIAWIYAGTGNTNYNQKFTDKAQLTVDTSSSTAYMQLSSLTTEDSAIYYCAISGTGFTYWGQGTLVTVSA
VL: EVLMTQSPLSLPVSLGDQASISCRSSQSLEHTNGNTYLEWFLQRPGQPPKLLIYKVSSRFSGVPDRFSGSGSGTDFTLKISRVEAEDLGVYYCFQGSHVPFTFGSGTKLAIKR
B3: HCV 208A-920 (antibody, V domains shown)
VH: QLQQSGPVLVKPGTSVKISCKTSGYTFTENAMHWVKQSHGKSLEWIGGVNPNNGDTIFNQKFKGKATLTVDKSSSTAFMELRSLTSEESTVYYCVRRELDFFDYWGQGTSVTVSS
VL: DIVLTQSPASLAVSLGQRATISCRASQSVSTSRYSYMHWYQQKPGQPPKLLIKYASNLESGVPARFSGSGSGTDFTLNIHPVAEEDTAAYYCQHSWEFPFTFGSGTKLEIKR
B4: HCV 208B-560 (antibody, V domains shown)
VH: EVQLQQSGPELEKPGASVKISCKTSGYTFTEYAMHWVKQSHGMSLEWIGGINPSNGNAIYNQIFKDKATLTVDRSSSTAYMGLRSLTFGDSGVYFCVRRQLDFFDYWGQGASLTVSS
VL: DIVVTQSPASLAVSLGQRATISCRASQSVSTSRYSYLHWYQQKPGQPPKLLIKYASNLESGVPARFSGSGSGTDFTLNIHPVGEEDTATYYCQHSWEFPFTFGSGTKLEIKR
B5: HCV 208A-133 (antibody, V domains shown)
VH: QLQQSGPVLVGPGASVMISCKTSGYTFTENAMHWVEQSHGKSLEWIGGVNPNNGDTIFNQKFKGKATLTVDKSSSTAFMEFRSLTSEESTVYYCVRRELDFFDYWGQGTSVTVSS
VL: DIVLTQSPASLAVSLGQRATISCRASQSVSTSRYSYMHWYQQKPGQPPKLLIKYASNLESGVPARFSGSGSGTDFTLNIHPVAEEDTATYYCQHSWEFPFTFGSGTKLEIKR
B6: HCV 208A-741 (antibody, V domains shown)
VH: QLQQSGPVLVKPGASVMISCKTSGYTFTENAMHWVKQSHGKSLEWIGGVNPNNGDTIFNQKFKGKATLTVDKSSSTAFMELRSLTSEESTVYYCVRRELDFFDYWGQGTSVTVSS
VL: DIVLTQSPASLAVSLGQRTTISCGASQSVSTSRFSYMHWYQQKPGQPPKLLIKYASNLESGVPARFSGSGSGTDFTLNIHPVAEEDTAAYYCQHSWEFPFTFGSGTKLEIKR
B7: HCV 208A-126 (antibody, V domains shown)
VH: QLQQSGPVLVKPGASVMISCKTSGYTFTENAMHWVKQSHGKSLEWIGGVNPNNGDTIFNQKFKGKATLTVDKSSNTAFTELRSLPSEESTVYYCVRRGLDFFDYWGQGTSVTVSS
VL: DIVLTQSPASLAVSLGQRATISCRASQSVSTSRYSYMHWYQQKPGQPPKLLIKYASNLESGVPARFSGSGSGTDFTLNIHPVAEEDTAAYYCQHSWEFPFTFGSGTKLEIKR
B8: HCV 208A-110 (antibody, V domains shown)
VH: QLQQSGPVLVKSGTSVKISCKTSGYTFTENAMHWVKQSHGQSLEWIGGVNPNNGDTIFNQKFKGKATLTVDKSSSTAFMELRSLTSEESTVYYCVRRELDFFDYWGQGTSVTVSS
VL: DIVLTQSPASLAVSLGQRATISCRASQSVSTSRYSYMHWYQQKPGQPPKLLIKYASNLESGVPARFSGSGSGTDFTLNIHPVAEEDTAAYYCQHSWEFPFTFGSGTKLEIKR
B9: HCV 208A-334 (antibody, V domains shown)
VH: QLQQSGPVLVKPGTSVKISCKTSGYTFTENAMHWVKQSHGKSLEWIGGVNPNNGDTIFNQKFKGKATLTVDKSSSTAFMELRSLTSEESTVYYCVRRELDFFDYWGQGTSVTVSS
VL: DIVLTQSPASLAVSLGQRATISCRASQSVSTSRYSYMHWYQQKPGQPPKLLIKYASNLESGVPARFSGSGSGTDFTLNIHPVAEEDTAAYYCQHSWGFPFTFGSGTKLEIKR
B10: HCV 208B-251 (antibody, V domains shown)
VH: QLQQSGPVLVKPGASVKISCKTSGYTFTENAMHWVKQSHGKSLEWIGGVNPNNGDTIYNQKFKGKATLTVDKSSSTAFMELRSLTSEESPVYFCVRRELDFFDYWGQGTSVTVSS
VL: DIVLTQSPASLAVSLGKKATISCRASQSVSTSRYSYMHWYQQKPGHPPKLLIKYASNLESGVPARFSGSGSGTDFTLNIHPVAEEDTAAYYCQHSWEFPFTFGSGTKLEIKR
B11: HCV 208A-222 (antibody, V domains shown)
VH: EVQLQQSGPELEKPGASVRISCKTSGYTFTEYAMHWVKQSHGKSLEWIGGINPNNGNAIYNQIFKDKATLTVDRSSSTAYMGLRSLTFGDSGVYFCVRRQLDYFDYWGQGASLTVSS
VL: DIVVTQSPASLAVSLGQRATISCRASQSVSTSRYSYLHWYQQKPGQPPKLLIKYASNLESGVPARFSGSGSGTDFTLNIHPVGEEDTATYYCQHSWEFPFTFGSGTKLEIKR
B12: HCV 208A-692 (antibody, V domains shown)
VH: QGQMQQSGAELAKPGASVKLSCKTSGFTFSSSYISWLKQKPGQSLEWIAWIFAGTGNTNYNQKFTDKAQLTVDTSSSTAYMQLSSLTTEDSAIYYCAISGTGFTYWGQGTLVTVSA
VL: EVLMTQSPLSLPVSLGDQASISCRSSQSLEHSNGNTYLEWFLQRPGQPPKLLIYKVSSRFSGVPDRFSGSGSGTDFTLKISRVEAEDLGVYYCFQGSHVPFTFGSGTKLAIKR
B13: HCV 208A-605 (antibody, V domains shown)
VH: EVQLQQSGPELEKPGASVKISCKTSGYTFTEYAIHWVKQSHGMSLEWIGGINPSNGNAIYNQIFKDKATLTVDRSSSTAYMGLRSLTFGDSGVYFCVRRQLDFFDYWGQGASLTVSS
VL: DIVVTQSPASLAVSLGQRATISCRASQSVSTSRYSYLHWYQQKPGQPPKLLIKYASNLESGVPARFSGSGSGTDFTLNIHPVGEEDTATYYCQHSWEFPFTFGSGTKLEIKR
B14: HCV 208A-159 (antibody, V domains shown)
VH: QLQQSGPAQVKPGASVMISCKTSGYTFTENAMHWVKQSHGKSLEWIGGVNPNNGDTIFNQKFKDKAALTVDKSSSTAFMELRSLTSEESTVYYCVRRELDFFDYWGQGTSVTVSS
VL: DIVLTQSPASLAVSLGQRATISCRASQSVSTSRYSYVHWYQQKPGQPPKLLIKYAANLESGVPARFSGSGSGTDFTLNIHPVAEEDAAAYYCQHSWEFPFTFGSGTKLEIKR
B15: HCV 208B-612 (antibody, V domains shown)
VH: EVQLQQSGPELVKPGASVKMSCKASGYRFTSYVMHWVRQKPGQGLEWIGYIDPHNDDTKYSEKFRGKATLTSDKSSTTAYMELSSLTSEDSAVYYCVRYSYDRDYSPMDYWGQGTSVTVSS
VL: QIVLTQSPTLMSASPGEKVTMTCSASSTVTYIYWYQQKPGSSPRLWMYDTFNLVSGVPARFSGSRSGTSYFLTISSMEGEDAATYYCQQYSDSPYTFGGGTKLEIKR
B16: HCV 208A-442 (antibody, V domains shown)
VH: DVQLQESGPGLVNPSQSLSLTCSVTGYSITSGYYWIWIRQFPGNKLEWMGYIKYDGGNNYSPSLKNRISIARDTSKNQFFLKLNSVTIEDTATYYCTRGSDSFDYWGQGTTLTVSS
VL: DIVLTQSPASLAVSLGQRAIISCKASQSVSFAGTNLMHWYQQKPGQQPKLLIYRASNLETGVPTRFSGSGSRTDFTLNIHPVEEDDAATYYCQQSREYYTFGGGTKLEIKR
B17: HCV 208A-638 (antibody, V domains shown)
VH: QGQLQQPGAEFVKPGASLKLSCRASGYTFTSYWIHWVKQRPGQGLEWIGEVDPSDSYINQNEKFRGKATLTVDKSSSTAYMQLGSLTSEDSAVYYCARHYYGVLDSWGQGTALTVSS
VL: QIVLTQSPTIMSASLGERVTMTCTASSSVSSSYLHWFQQKPGSSPKLWIYSTSNLASGVPPRFSGSGSGTSYSLSISSVEAEDVATYYCLQFHRSPWTFGGGAKLEIKR
B18: HCV 208B-672 (antibody, V domains shown)
VH: EVKLVESGGSLVQPGGSLKLSCAASGFNFNTYAMSWVRQTPEKRLEWVAYISNGGGNTYYVDTVKGRFTISRDNAKNTLYLRMSSLKSEDTAMYYCARHGLYWGYSMDYWGQGTSVTVSS
VL: DIQMTQSPSSLSASLGERVSLTCRASQDIGGSINWLQQEPDGTIKRLIYATSSLDSGVPKRFSGSRSGSDYSLTISSLESEDFVDYYCLQYASSPPTFGGGTKLEIKR

Experiments:
[1] = molecular target: T1, HCV Core1-169; assay: EIA, core1-169 coated on plate; also: test concentration or dose not given here
[2] = molecular target: T1, HCV Core1-169; assay: EIA, core1-169 captured by mAb 14-153-229; also: test concentration or dose not given here
[3] = molecular target: T2, HCV Core1-169; assay: SPR sandwich, capture mAb C11-14
[4] = molecular target: T3, HCV Core 134-171-TT Peptide (hepatitis C virus (HCV-1 numbering) …); assay: SPR, captured mAb, peptide analyte
T3 construct: also called ALRZ-9 peptide

[5] = molecular target: T2, HCV Core1-169; assay: SPR sandwich, capture mAb C11-7
[6] = molecular target: T2, HCV Core1-169; assay: SPR sandwich, capture mAb C11-9
[7] = molecular target: T2, HCV Core1-169; assay: SPR sandwich, capture mAb C11-3

| Binder | OD (A492) [1] [OD] | OD (A492) [2] [OD] | other results |
| --- | --- | --- | --- |
| B1 | 1.4 | 2.39 | – |
| B2 | 0.1 | 0.13 | – |
| B3 | 1.14 | 1.82 | – |
| B4 | 1.07 | 1.3 | – |
| B5 | 1.73 | 1.46 | – |
| B6 | 1.2 | 1.9 | – |
| B7 | 0.69 | 1.2 | – |
| B8 | 1.6 | 1.87 | – |
| B9 | 1.28 | 1.9 | – |
| B10 | 0.79 | 1.39 | – |
| B11 | 1.06 | 2.07 | – |
| B12 | 0.07 | 0.57 | – |
| B13 | 0.55 | 2.21 | – |
| B14 | 0.57 | 1.29 | – |
| B15 | – | – | expected percent binding [3]: 3.1%; Kd [4]: 0.35 nM; koff [4]: 6.5e-05 s⁻¹; kon [4]: 180000 M⁻¹ s⁻¹; expected percent binding [5]: 4.4%; expected percent binding [6]: ≤ 1%; expected percent binding [7]: 3.8% |
| B16 | 1.61 | 0.36 | – |
| B17 | 1.07 | 2.24 | – |
| B18 | – | – | expected percent binding [3]: 2.7%; Kd [4]: 0.16 nM; koff [4]: 0.00034 s⁻¹; kon [4]: 2.2e+06 M⁻¹ s⁻¹; expected percent binding [5]: 2.8%; expected percent binding [6]: ≤ 1%; expected percent binding [7]: 2.6% |
